A short description of this series: soluble on expression in E. coli; label from the status in PepcDB or PDB records.
Consider “AMADTIVAVELDSYPNTDIGDPNYPHIGIDIKSIRSKSTARWNMQTGKVGTVHISYNSVAKRLSAVVSYSGSSSTTVSYDVDLNNVLPEWVRVGLSATTGLYKETNTILSWSFTSKLKTNSIADANSLHFSFNQFSQNPKDLILQGDAFTDSDGNLQLTKVSSSGDPQGNSVGRALFYAPVHIWEKSAVVASFDATFTFLIKSPDREPADGITFFIANTDTSIPSGSGGRLLGLFPDAN”, for which the “soluble on expression in E. coli” value was “soluble”.

For “MSLEQKILAQGALEAARRRQSEQEKALLLSQLKQLQSQMEPHFLFNTLANINALIAVEPYKAQLMLEKFTELLRGTMRLRRTNTGDLREEMQLIDAYLGIQKIRLGERLEYTLPELSELGTLGMPPMLIQPLVENAVSHGIEPKAEGGTIRVRIEVADDWFELSVEDNGMGLSDTPKGNGIALQNVRDRLSGLFGHEGLLTVAQNCSGGVTATLRIRLHHLQGLQRSFYDYSQARSPQSEGHHHHHH”, the “soluble on expression in E. coli” value is reported as “soluble”.

Turning to “MSLRHDFVFSGVIMLELNAKTTALVVIDLQEGILPFAGGPHTADEVVNRAGKLAAKFRASGQPVFLVRVGWSADYAEALKQPVDAPSPAKVLPENWWQHPAALGATDSDIEIIKRQWGAFYGTDLELQLRRRGIDTIVLCGISTNIGVESTARNAWELGFNLVIAEDACSAASAEQHNNSINHIYPRIARVRSVEEILNALEGGSHHHHHH”, the “soluble on expression in E. coli” value is “soluble”.

On to “MASQPNSSAKKKEEKGKNIQVVVRCRPFNLAERKASAHSIVECDPVRKEVSVRTGGLADKSSRKTYTFDMVFGASTKQIDVYRSVVCPILDEVIMGYNCTIFAYGQTGTGKTFTMEGERSPNEEYTWEEDPLAGIIPRTLHQIFEKLTDNGTEFSVKVSLLEIYNEELFDLLNPSSDVSERLQMFDDPRNKRGVIIKGLEEITVHNKDEVYQILEKGAAKRTTAATLMNAYSSRSHSVFSVTIHMKETTIDGEELVKIGKLNLVDLAGSENIGRSGAVDKRAREAGNINQSLLTLGRVITALVERTPHVPYRESKLTRILQDSLGGRTRTSIIATISPASLNLEETLSTLEYAHRAKNILNKPEVNQKL”, for which the “soluble on expression in E. coli” value is on record as “soluble”.

Consider “SNSGEPAPVLSSPTPTDLSTFLSFPSPEKLLRLGPKVSVLIVQQTDTSDPEKVVSAFLKVASVFRDDASVKTAVLDAIDALMKKAFSCSSFNSNTFLTRLLIHMGLLKSEDKIKAIPSLHGPLMVLNHVVRQDYFPKALAPLLLAFVTKPNGALETCSFARHNLLQTLYNI”, for which the “soluble on expression in E. coli” value is “soluble”.

With “GPGSMVTTDINRDPVKRAMEDGTWRPGQKTAPQQQPQSLGVQCVAAPPQQAPCVPPLLVQYVPAPQAQYTPQPQLMQYVPQQPPQGYYQPRPPLPQPSYYPPGPPPPLQSGYYQQPPVPIQQVYYTQPPSQCYAPQPQYQY”, the “soluble on expression in E. coli” value is given as “not soluble”.

Regarding “KLFEHTVLYDSGDAFFELKGNASMKLSPKAAIEVCNEAAKKGLWILGIDGGHWLNPGFRIDSSASWTYDMPEEYKSKIPENNRLAIENIKDDIENGYTAFIITLKM”, the “soluble on expression in E. coli” value is “soluble”.

Take “MNHQSYSAPTQAVAANTHLIYSTEQGGAVSPTPQKSIGSIADYDPMNGQWGTAAAQPRNSEKLGYLKAQVDKGPARFCADFAGAPPPSSNSISSTSPHSTLSSPQSTISPTGKAGFAVKAIYDYAAADKDEISFLEGDIIVNCEKIDDGWMTGTVQRTLQWGMLPANYVQPHKLPTGLHRLS”: the “soluble on expression in E. coli” value is recorded as “not soluble”.

Regarding “MSTLLAILFLLPFYTFSLNKKPEEVLKGLYPSAEIEVEDIILTEEQVKEVEKLSGTKLNTRFVTFYIVKKDGKVLAYGYVDIHRVRTKPEAVLYVISPKGKIELIEVLAFHEPLEYLPPKNWLKLFEGKDINAPLRVKKDIPNVTGATLTARAITKNAKKVLALWQVLFGGKE”, the “soluble on expression in E. coli” value is reported as “not soluble”.

With “MGSDKIHHHHHHLSGCVSLPPPAPIVHQPMSARAALPAPPPGNGAVYQDANQYHSLFIDRRARQIGDTLVILLTERTNASKRSNSSANKNGDVSFGIPPIVFGVPITKKIDLGASSSNDFAGKGEAASANNFSGTITVTVVDVLPNSYLVVSGEKQLAMTQGSEYIRFSGVVRPETVISNTVSSIQVADARIEYKANGYIDEAQTMGWLSRFFLTVAPF”, the “soluble on expression in E. coli” value is “not soluble”.

For the sequence “MGSDKIHHHHHHMRIAIVTHVVRHNDGQGRVNYEIARAALAENYEVTLVASHVAPELLADPRVRWVPVKVGRFWPSNLVKQQVFALKSAWWLRAHRGEYDVLHVNGFISWISADVNTAHFVHGGWFKSPYYPFGLTKGMWSAYQYVYTRVNTALERWAYRRSRAITAVSQKVADEIAGLGIDSRKISVIYNGVDGSAFAGAQPDRAAFKLPDDAFLLLFVGDLRTPRKNLGTVLKALTKLPANVHLAVAGYLPGSPYPDEARALGIDSRVHFLGLVKNMPTLMSSVDAYVFPSRYEAMSLSLLEAMAAGLPVVTARTAGGAEIITRECGIVLEDPDDPAALAQAIGSLAASRDTCRAMGDAARELMTRFGWAHMGAQYVALYRRIGQPTQPSAFERVEHAVTQEQS”, the “soluble on expression in E. coli” value is given as “not soluble”.

As for “MGQELNKIGIEVLRIVSIRDREEEIMEAVDNAMKRVNIVLVTGGLGPTKDDITKQTLCKYFHTELIFSEEVFENVKRVLAGKIPMNALNKSQAMVPKDCTVINNPVGSASVSWFEKDNKVLVSMPGVPQEMTAVMTESVLPKLREKFQTDVIMHRTFLVQHYPESILAEKLEPWETALPESIKLAYLPKLGIIRLRLTGRGQNKIEVESALNDEQAKLEAILGDDIFSEEDIPLEVIVGELLKKKNLTVSTAESCTGGSIAARLTSIAGSSEYFNGGIVAYSNEVKMNLLHVSPETLEVYGAVSEQTVIEMVKGAMKALKTDCAVATSGIAGPGGGTPEKPVGTVWIAAGYKNEIRTYRQETNRGRAMNIERAGNNALLILRDLLK”, the “soluble on expression in E. coli” value is recorded as “not soluble”.

As for “MAHHHHHHMLDDLKTAYTPAVASKICYVASQLRIDATKGQPYTAVLEATMTAEGEQAMEVASLARIVHSCLVLRSGHLHEVLFTFIPFLREKAGTMDAVTTAVLINAYGRSGVHHPGLYKALCDNGATVLKDPRVPLAHIANVAYAVSRVKFLHPALMLTLRDHALRKVAEASPIISLTVLDAFTELRQIDDDLFNAYEQRLLGQLNELQAPLMASLVSCVVRAGRGKAEVMESLGARTVAIADTFDAASIAKVTNAYYEADVASEDVLGALAERACKVAADFRADEIATVLNALSAFDLFDAELFPLLASRLVALHRQGGYVDVADAAVILSSFAAVQERNDELIYVCTQLFAAYPGVAMDPAVRVNALWACASLNVHNEAQTKMLEEVRATPSLVMWESKTDTLPKAKATLEERTRFLAKVYGITISSSGAR”, the “soluble on expression in E. coli” value is recorded as “soluble”.

“MEDLTNVSSLLNMERARDKANEEGLALLQEEIDKMVETTELMTGNIQSLKNKIQILASEVEEEEERVKQMHQINSSGVLSLPELSQKTLKAPTLQKEILALIPNQNALLKDLDILHNSSQMKSMSTFIEEAYKKLDAS”: the “soluble on expression in E. coli” value is “soluble”.

For “REIADNTYIVLGTMTLNDFNEYFETDLESDNVDTIAGFYLTGVGTIPSQEEKEHFEVESNGKHLELINDKVKDGRVTKLKILVSEVEEKEDEKD”, the “soluble on expression in E. coli” value was “not soluble”.

Regarding “AQELQTANEFTVHTDLSSISSTRAFLKEKHKAAKHIGVRADIPFDANQGIRLEAGFGRSKKNIINLETDENKLGKTKNVKLPTGVPENRIDLYTGYTYTQTLSDSLNFRVGAGLGFESSKDSIKTTKHTLHSSRQSWLAKVHADLLSQLGNGWYINPWSEVKFDLNSRYKLNTGVTNLKKDINQKTNGWGFGLGANIGKKLGESASIEAGPFYKQRTYKESGEFSVTTKSGDVSLTIPKTSIREYGLRVGIKF”, the “soluble on expression in E. coli” value is listed as “soluble”.

As to “MRISGVTLFRVSSQLRNVVNGQWTTTHYTVKDRSTDPRWKDVDLARESDVYDVVIVGGGPSGLSAAIRLRQLAEKAQKELRVCVVEKASVIGGHTLSGAVIETRALDELIPNWKELGAPVYQQVTSESIAILTESGRIPVPVLPGVPLANHGNYIVRLGKVVQWLGEQAEAAGVEVWPEIAASEVLYNEDGSVKGIATSDVGIGKDGAPKDGFARGMEFHAKCTIFAEGCRGHLSKQVLDKFDLRTHAMTYGIGLKELWEIDPAKHRPGYVEHTMGWPLNVDQYGGSFLYHIEDQGQPLVSVGFVVALDYANPNLNPYKEFQKYKTHPSISKQLEGGKRIGYGARALNEGGFQSIPKLHFPGGCLVGCSAGFLNVAKLKGTHNAMKSGMVAAESIFEDIQQKGEDVQTIDPATYDKNIRDTYVVKELKATRNIRPSFNTSLGYIGGLIYSGIFYVFGRGIEPWTLGHGKKDNEKLIPVKDAKEIDYPKPDGKLTFDLLTSVSLTGTNHTEDQPAHLTLKNDQVPLDVNLAVYGGPEARFCPAGVYEFVPSEADESKKRLQINAQNCIHCKTCDIKDPQQNINWVTPEGGGGPKYEGM”, the “soluble on expression in E. coli” value was “not soluble”.

For “MGSDKIHHHHHHMKEVVKLVLLGERQNSLNLSLYFNKYPPTIIYPEVLEDRNKKLASPSGSQRKISLLVLNQGVLQFNKIKETIEKSLPIETKVKLPQKAYELYKKYYQDYTDMLNSLHAITGKFKTQSRLVVGLGDESVYETSIRLLRNYGVPYIPGSAIKGVTRHLTYYVLAEFINEGNDFYKRAKTVQDAFMKGDPKEILSNAKVPERCSRLCKEFLRIFGEKKVPEIIDELIRIFGTQKKEGEVVFFDAIPIAEEIADKPILELDIMNPHYGPYYQSGEKNVPPPGDWYDPIPIFFLTVPKDVPFLVAVGGRDRELTEKAFSLVKLALRDLGVGAKTSLGYGRLVEYV”, the “soluble on expression in E. coli” value is “not soluble”.

In the case of “MSPIPTTAETRKINEAAELMVNFWMSFACVEKEKEQMASIFEKMNGLFAAPSTTSTASLFGKYEGLFETTEVATEDFNTLWWNYPAQPSFPQLPVFVRSPIDSIKIYGAIQHDFGMSEDESVQYPSPISPSSDSSSETITHVSPGYLLQEVFLQRAVIEEQKKIIDGFHEIQKLNKKLAALHNNFTY”, the “soluble on expression in E. coli” value was “not soluble”.

Turning to “MPNRHGSPRSSTRWAGLAIIALACLLSACSSTPTRSLTSRDTSGQRTHGAAINDPSAGLEEISIEAMALVGTPYRYGGNTPDSGFDCSGLVRYVVQRAASVNLPRTAAEMGTRGFALERRDVASGDLVFFNTTGRPNSHVGIYVGQNRFVHAPATGGTVRLEDMSKRYWASRYMGARRVVAVSNLPDLPASPAAATQSIAAGAAAPATAPAHANDDDPLGTLARARGTESSPLMSTRNAAPVVVPPADDDPIARFATQ”, the “soluble on expression in E. coli” value is “soluble”.

Turning to “MKYTFLLLCAIFGCTLAMRQQSVAVSGKLMCGSKPASGVKVKLWDEDDGPDPDDVLDEGFTNNDGTFRLEGSERELTNIDPVFKVYHDCDDGIIPGQRKIKFRIPNKYISAGGRAQKTFEIGVLNLETIFPKEERDLL”, the “soluble on expression in E. coli” value is “not soluble”.

In the case of “MNKELTFNDLPMVVAQLRDEVVGMKQMIVSLQSQNKPHKANTHIPMSVEEASAYLKMPMATLYMKLGNGSIPATKPGKRYCLYQDELDKWLETNRKNPVPLTAEEENAAILAGNKRKPKPLNW”, the “soluble on expression in E. coli” value is listed as “not soluble”.

For “MNASTSSPSQQLQQAINSTIDKECAVCYSEMILPTTIPSCGHKFCFICLKGVSVSNNGDCPICRGPIDSQIFKKPLQAVDLKMDIPGTPSAAAPDPVVKQEVDDEDVKPDVKKLQEELKKQQAAAAAQKMFWLYRGRHQGWWRFDPRIEKEIEEAFTHQMPMTEVTICGNPYIVDFSQMCQYPKNQSNYSRNVKYGSRLKVLKILAKIDRKSAF”, the “soluble on expression in E. coli” value is recorded as “not soluble”.

For “MGHHHHHHSHMEKNLLLTIESLYKNLRKANKAVDFTTVKFLLQDSRSLLHAFSTRSNYDGILPQTFAQVNNLLQTFAEVKTKLKPNSSENTVTKKQEGTSLKNSHNQEITVFSSSHLPQPSRHQEIWSILESVWITIYQNSTDVFQRLGSNSALTTSNIASFEEAFICLQKLMAAVRDILEGIQRILAPNSNYQDVETLYNFLIKYEVNKNVKFTAQEIYDCVSQTEYREKLTIGCRQLVEMEYTMQQCNASVYMEAKNRGWCEDMLNYRI”, the “soluble on expression in E. coli” value is “not soluble”.

These data come from the DeepSol protein solubility set.
